Measured values as given in patent US7534862.

Tests used:
[1] = target: IL-6/sIL-6R complex (100 ng/ml IL-6 + 50 ng/ml sIL-6R) (UniProt P05231); test: cell-based or functional assay
[2] = target: hyper-IL-6 (H-IL-6), a fusion protein comprising IL-6+sIL-6R (UniProt P08887); test: cell-based or functional assay
hyper-IL-6 (H-IL-6), a fusion protein comprising IL-6+sIL-6R, sequence (P08887 20-323 limits assumed, chain 1 of 2): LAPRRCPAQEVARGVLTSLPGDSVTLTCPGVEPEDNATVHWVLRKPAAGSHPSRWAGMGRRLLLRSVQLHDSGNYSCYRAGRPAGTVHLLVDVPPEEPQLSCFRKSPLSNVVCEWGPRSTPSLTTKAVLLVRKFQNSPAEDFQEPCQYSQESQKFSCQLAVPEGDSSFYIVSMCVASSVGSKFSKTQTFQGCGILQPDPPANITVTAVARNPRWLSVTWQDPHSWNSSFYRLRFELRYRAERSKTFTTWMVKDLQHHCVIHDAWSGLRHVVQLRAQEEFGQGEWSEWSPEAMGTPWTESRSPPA
hyper-IL-6 (H-IL-6), a fusion protein comprising IL-6+sIL-6R, sequence (P05231 30-212 limits assumed, chain 2 of 2, further chain): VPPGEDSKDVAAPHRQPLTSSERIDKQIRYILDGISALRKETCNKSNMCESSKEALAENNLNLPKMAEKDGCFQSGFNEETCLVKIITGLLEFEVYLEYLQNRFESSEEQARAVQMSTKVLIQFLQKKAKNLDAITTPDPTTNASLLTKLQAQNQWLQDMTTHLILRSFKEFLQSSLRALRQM

IL-6/sIL-6R complex (100 ng/ml IL-6 + 50 ng/ml sIL-6R), sequence (P05231 30-212 limits assumed, chain 1 of 2): as the sequence (P05231 30-212 limits assumed, chain 2 of 2, further chain) above
IL-6/sIL-6R complex (100 ng/ml IL-6 + 50 ng/ml sIL-6R), sequence (P08887 20-358 limits assumed, chain 2 of 2, further chain): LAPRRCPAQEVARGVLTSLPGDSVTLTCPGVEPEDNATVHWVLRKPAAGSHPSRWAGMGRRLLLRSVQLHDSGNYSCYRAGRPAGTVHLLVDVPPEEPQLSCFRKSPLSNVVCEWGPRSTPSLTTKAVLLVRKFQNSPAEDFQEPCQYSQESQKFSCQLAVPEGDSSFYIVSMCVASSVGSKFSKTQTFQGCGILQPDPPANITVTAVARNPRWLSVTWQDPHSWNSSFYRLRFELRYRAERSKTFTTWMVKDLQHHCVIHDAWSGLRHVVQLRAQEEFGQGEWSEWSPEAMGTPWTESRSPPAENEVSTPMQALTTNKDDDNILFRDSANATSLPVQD

B1: sgp130PEG (PEGylated sgp130(D1-D3)-Pn dimer) (receptor, part only)
chain: MLTLQTWVVQALFIFLTTESTGELLDPCGYISPESPVVQLHSNFTAVCVLKEKCMDYFHVNANYIVWKTNHFTIPKEQYTIINRTASSVTFTDIASLNIQLTCNILTFGQLEQNVYGITIISGLPPEKPKNLSCIVNEGKKMRCEWDGGRETHLETNFTLKSEWATHKFADCKAKRDTPTSCTVDYSTVYFVNIEVWVEAENALGKVTSDHINFDPVYKVKPNPPHNLSVINSEELSSILKLTWTNPSIKSVIILKYNIQYRTKDASTWSQIPPEDTASTRSSFTVQDLKPFTEYVFRIRCMKEDGKGYWSDWSEEASGITYEDRP
modifications: C-terminal Pn cysteine peptide unsequenced; PEGylated; disulfide dimer
factor of improvement over sgp130Fc in inhibition of BAF/gp130 proliferation (fold vs sgp130Fc) [1]: 1.5 to 3 | half-maximal [3H]-thymidine incorporation of BAF/gp130 cells (proliferation) [1]: 1 to 5 ng/mL | STAT3 activity (relative luciferase activity, pSTAT3-TA-Luc reporter in BAF/gp130 cells) at 10 ug/ml inhibitor, 5 ng/ml H-IL-6 (% of activity with H-IL-6 alone) [2]: 18 | concentration giving half-maximal activation of STAT3 (H-IL-6-induced, luciferase reporter in BAF/gp130 cells) [2]: 2.5 µg/mL | efficiency relative to sgp130Fc in inhibition of H-IL-6-induced STAT3 activation (fold vs sgp130Fc) [2]: 2 to 3 | factor of improvement over sgp130Fc in inhibition of BAF/gp130 proliferation (fold vs sgp130Fc) [2]: 1.5 to 3 | half-maximal [3H]-thymidine incorporation of BAF/gp130 cells (proliferation) [2]: 1 to 5 ng/mL
